Columns and labels:
mouse bone marrow cells = experiment: Proliferation of mouse bone marrow cells; type: cell-based; conditions: data not shown
Experimental: Stable Ba/F3 cells expressing porcine CSF-1R were maintained in culture with complete RPMI supplemented with either 10^4 Units/ml rh-CSF-1 or 10% IL-3 conditioned medium prior to MTT assay. 2×10^4 cells/well (Ba/F3 cells and Ba/F3 transfectants), or 5×10^4 cells/well (pig BMM) of a 96 well plate were plated in triplicate or quadruplicate and appropriate treatment (serial dilutions of rh-CSF-1 or porcine Fc CSF-1 were added to make a total volume of 100 μl per well. Cells were incubated for 48 hours at 37° C. with 5% CO2. For Ba/F3 cells, 10 μl of MTT (Sigma Aldrich M5655) stock solution (5 mg/ml) was added directly to each well to achieve a final concentration of 0.5 mg/ml and incubated at 37° C. for 3 hours prior to solubilisation overnight. For adherent mouse BMM cells, culture medium was replaced with 50 μl of 1 mg/ml MTT solution and incubated for 1 hour at 37° C. MTT solution was removed and tetrazolium salt solubilised with 100 μl of solubilisation agent (0.1M HCL, 10% Triton x-100 and isopropanol) followed by incubation at 37° C. with 5% CO2 for 10 minutes. Plates were read at 570 nm with reference wavelength of 405 nm.
Mice were injected with Fc-CSF-1 subcutaneously on each of 4 days and sacrificed on the 5th day. The mice were csf1r-EGFP (MacGreen) mice on the C57BI/6 background. […]

male C57BI6 mice [1] = experiment: Chronic liver injury (carbon tetrachloride) plus 2/3 partial hepatectomy in mice; type: in vivo, mouse; conditions: for mouse body weight: p<0.001 at day 4
Experimental: (§1) Forty-eight male C57BI6 mice aged 10-12 weeks underwent either 2/3 partial hepatectomy, paracetamol intoxication or chronic liver injury plus 2/3 partial hepatectomy. 2/3 partial hepatectomy was performed by ligating the left lobe and left and right median lobes. Paracetamol intoxication was performed by intraperitoneal administration of 350 mg/kg paracetamol dissolved in phosphate buffered saline (PBS). Chronic liver injury plus 2/3 partial hepatectomy was performed by eight weeks intraperitoneal carbon tetrachloride administration 1 mcl/g twice weekly dissolved in olive oil followed by ⅔ partial hepatectomy as described above. […] Control mice (n=8 per injury model) received subcutaneous PBS of appropriate volume. All mice were culled on day 4 following injury (partial hepatectomy or paracetamol intoxication).
(§2) Following a midline laparotomy the liver was excised and weighed. Liver weight to body weight ratio was calculated and expressed as a percentage. Livers were fixed in 4% formalin overnight then transferred to 70% ethanol. Livers were then embedded in paraffin blocks and 4 μm sections cut. Immunohistochemistry for Ki67 (a marker of cellular proliferation expressed throughout the cell cycle) was performed following heat mediated antigen retrieval in Tris/EDTA solution at pH9. Hepatocyte proliferation was quantified by counting ki67 positive hepatocytes in 20 high powered fields (400×) per animal and the mean calculated.
The effects of Fc-CSF1 on liver regeneration in murine models of acute liver injury (partial hepatectomy; paracetamol intoxication) and acute-on-chronic liver injury (chronic liver injury plus partial hepatectomy) were studieD. […] Control mice (n=8 per injury model) received subcutaneous PBS of appropriate volume.
CSF1-Fc or control was administered to mice immediately following 2/3 partial hepatectomy on a background of 8 weeks carbon tetrachloride induced chronic liver injury (1 mcl/g carbon tetrachloride/mouse 2×/week).

male C57BI6 mice [2] = experiment: Paracetamol intoxication in mice; type: in vivo, mouse; conditions: administered 12 hours following paracetamol intoxication; Day 4
Experimental: as §1, §2
Hepatic CSF1 gene expression was assessed in mice following paracetamol intoxication (350 mg/kg paracetamol IP following overnight fast) at time points up to 4 days, showing peak CSF1 gene expression at day 2 (FIG. 14A).

C57BI6 male mice [3] = experiment: Hepatic phagocytic ability after partial hepatectomy (gene analysis, bead clearance assay, ex vivo imaging); type: in vivo, mouse
Experimental: (§3) C57BI6 male mice (8-10 weeks) underwent either partial hepatectomy (⅔ resection) or paracetamol intoxication (350 mg/kg intraperitoneal following overnight fast). CSF1-Fc was administered as previous (0.75 mg/kg). Gene analysis was performed using Qiagen Quantitect Primers (MSR1 and MARCO) and related to GAPDH level for each sample. […] 0.1 mls of 5000 IU/ml heparin solution was infused to prevent blockage of the catheter. 100 μl of red fluorescent bead solution (1:5 Latex beads 1.0 μm, fluorescent red, SIGMA-ALDRICH®) was infused through the cannula (1:2 solution for assay following paracetamol injury). 20 mcl of blood was removed from the cannula every two minutes starting from 1 minute post injection for 15 minutes. Blood was immediately fixed with 300 μl FACS-Lysing solution (BD Biosceinces). After 15 minutes mice were perfused with 15 mls 0.9% saline through the IVC cannula after dividing the portal vein for outflow. Organs were then removed (Liver, spleen, lungs, kidney, brain) and imaged with a Kodak In-Vivo Multispectral FX image station (Excitation: 550 nm; Emission: 600 nm; Exposure 1 sec; f-stop 2.8). Subsequently blood samples were analysed using a LSR-Fortessa™ flow cytometer (BD Biosciences) with fluorescent beads detected on the blue channel (B695/40) by a 1 minute sample collection on low flow rate setting.

C57BI6 male mice [4] = experiment: Hepatic phagocytic ability after paracetamol intoxication (gene analysis, bead clearance assay, ex vivo imaging); type: in vivo, mouse
Experimental: as §3

[5] = chronic liver injury with 2/3 partial hepatectomy, vs control
[6] = day 2 following partial hepatectomy
[7] = day 2 following paracetamol intoxication

B1: Fc-CSF-1: active fragment of porcine CSF-1 (SEQ ID NO:1) linked to the hinge-CH3 region of porcine IgG1a (SEQ ID NO:2) (protein, listed as Sus scrofa)
chain: SENCSHMIGDGHLKVLQQLIDSQMETSCQIAFEFVDQEQLTDPVCYLKKAFLQVQDILDETMRFRDNTPNANVIVQLQELSLRLNSCFTKDYEEQDKACVRTFYETPLQLLEKIKNVFNETKNLLKKDWNIFSKNCNNSFAKCSSQHERQPEGRGTKTKPPCPICPGCEVAGPSVFIFPPKPKDTLMISQTPEVTCVVVDVSKEHAEVQFSWYVDGVEVHTAETRPKEEQFNSTYRVVSVLPIQHQDWLKGKEFKCKVNNVDLPAPITRTISKAIGQSREPQVYTLPPPAEELSRSKVTVTCLVIGFYPPDIHVEWKSNGQPEPEGNYRTTPPQQDVDGTFFLYSKLAVDKARWDHGETFECAVMHEALHNHYTQKSISKTQGK
- biological activity (proliferation) compared with recombinant pig CSF-1 (mouse bone marrow cells): no difference in biological activity
- fibrosis assessed by Sirius red quantification (male C57BI6 mice [1]; [5]): trend to reduction
- liver weight to body weight ratio (male C57BI6 mice [1]; [5]): increased significantly
- number of proliferating hepatocytes (male C57BI6 mice [1]; [5]): increased significantly
- mouse body weight (male C57BI6 mice [1]; [5]): significant increase in mouse weight
- mouse body weight (male C57BI6 mice [1]; chronic liver injury with 2/3 partial hepatectomy, vs control, listed as CSF1-Fc): significant increase in body weight
- survival (male C57BI6 mice [1]; chronic liver injury with 2/3 partial hepatectomy, vs control, p=0.08): trend to improved survival
- serum ALT (male C57BI6 mice [1]; day 4 post hepatectomy): significant reduction
- serum bilirubin (male C57BI6 mice [1]; day 4 post hepatectomy): significant reduction
- hepatocyte proliferation (male C57BI6 mice [2]): increasing
- liver weight to body weight ratio (male C57BI6 mice [2]): significantly increasing
- phagocytic ability of the liver, clearance of fluorescent latex microbeads from the circulation (C57BI6 male mice [3]; 0.75 mg/kg, following partial hepatectomy): dramatically enhanced
- fluorescent intensity of whole liver, ex vivo imaging (C57BI6 male mice [3]; 15 minutes after bead injection, following partial hepatectomy): increased fluorescent intensity
- MARCO gene expression, whole liver (C57BI6 male mice [3]; [6]): upregulation
- MSR1 (macrophage scavenger receptor 1) gene expression, whole liver (C57BI6 male mice [3]; [6]): upregulation
- MARCO gene expression, whole liver (C57BI6 male mice [4]; [7]): upregulation
- MSR1 (macrophage scavenger receptor 1) gene expression, whole liver (C57BI6 male mice [4]; [7]): upregulation
- clearance of latex microbeads from the circulation (C57BI6 male mice [4]; paracetamol model): did not notice enhanced clearance
- hepatic fluorescence, ex vivo imaging (C57BI6 male mice [4]; paracetamol model): significant increase
